In one data set the target is FAAP24 HhH V162A V162A (UniProt Q9BTP7). In words: EMSA. The following applies: EMSA: 10 mM Tris pH 7.0, 10 mM NaCl (high salt: 50 mM NaHPO4, 400 mM NaCl), 5% glycerol, 1 mM DTT, 20 ug/ml BSA, on ice, gel at 4 C; NMR: 50 mM NaHPO4 pH 6.5 …. On the technique in general: Mobility shift assays separate free from complexed probe on a gel.
The target of data set [1] is T1, FAAP24 HhH domain (UniProt Q9BTP7 139-215).
T1 sequence: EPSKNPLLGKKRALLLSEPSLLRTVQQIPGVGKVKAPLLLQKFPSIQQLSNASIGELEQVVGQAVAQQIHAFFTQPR
Briefly: NMR; 100 mM NaCl; EMSA: 10 mM Tris pH 7.0, 10 mM NaCl (high salt: 50 mM NaHPO4, 400 mM NaCl), 5% glycerol, 1 mM DTT, 20 ug/ml BSA, on ice, gel at 4 C; NMR: 50 mM NaHPO4 pH 6.5, 100 mM NaCl, 8% D2O, 298 K. The following applies: protein: recombinant; tags: N-terminal His; fork: 10 bp, two 20 nt arms.

In data set [2] the target is T1, FAAP24 HhH domain. In words: NMR; 100 mM NaCl; CSPs comparable with splayed arm; EMSA: 10 mM Tris pH 7.0, 10 mM NaCl (high salt: 50 mM NaHPO4, 400 mM NaCl), 5% glycerol, 1 mM DTT, 20 ug/ml BSA, on ice, gel at 4 C; NMR: 50 mM NaHPO4 pH 6.5, 100 mM NaCl, 8% D2O, 298 K. Conditions: protein: recombinant; tags: N-terminal His; 5' overhang 20 nt.
Data set [3] has as its target T1, FAAP24 HhH domain. Briefly: EMSA; 10 mM NaCl; apparent Kd; EMSA: 10 mM Tris pH 7.0, 10 mM NaCl (high salt: 50 mM NaHPO4, 400 mM NaCl), 5% glycerol, 1 mM DTT, 20 ug/ml BSA, on ice, gel at 4 C; NMR: 50 mM NaHPO4 pH 6.5, 100 mM NaCl, 8% D2O, 298 K. Conditions: protein: recombinant, tags: N-terminal His, label: radiolabeled.
For a further data set, the target named is T2, FAAP24 HhH R161A (UniProt Q9BTP7 139-215, R161A).
T2 sequence: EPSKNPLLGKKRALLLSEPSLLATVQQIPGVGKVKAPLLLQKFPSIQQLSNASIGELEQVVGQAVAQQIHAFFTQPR
Briefly: EMSA; EMSA: 10 mM Tris pH 7.0, 10 mM NaCl (high salt: 50 mM NaHPO4, 400 mM NaCl), 5% glycerol, 1 mM DTT, 20 ug/ml BSA, on ice, gel at 4 C; NMR: 50 mM NaHPO4 pH 6.5, 100 mM NaCl, 8% D2O, 298 K. Conditions: protein: recombinant, tags: N-terminal His, (radiolabeled) in EMSA, bubble: 10 bp stem, 10 unpaired nt.

The next data set deals with T3, FAAP24 HhH K171A/K173A (UniProt Q9BTP7 139-215, K171A;K173A).
T3 sequence: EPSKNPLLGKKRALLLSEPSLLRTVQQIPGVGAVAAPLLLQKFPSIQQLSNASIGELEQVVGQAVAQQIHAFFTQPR
Described as above. Conditions: protein: recombinant, tags: N-terminal His, (radiolabeled) in EMSA, bubble: 10 bp stem, 10 unpaired nt.

The target in the next data set is T4, FAAP24 HhH K173A (UniProt Q9BTP7 139-215, K173A).
T4 sequence: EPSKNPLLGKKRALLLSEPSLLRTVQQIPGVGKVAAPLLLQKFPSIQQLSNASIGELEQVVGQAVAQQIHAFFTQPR
The description is as above. Conditions: protein: recombinant, tags: N-terminal His, (radiolabeled) in EMSA, bubble: 10 bp stem, 10 unpaired nt.

In the next data set the target is T5, FAAP24 HhH Q205A/Q206A (UniProt Q9BTP7 139-215, Q205A;Q206A).
T5 sequence: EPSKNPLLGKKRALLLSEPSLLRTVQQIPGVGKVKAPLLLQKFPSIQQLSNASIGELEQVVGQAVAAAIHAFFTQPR
Briefly: EMSA; no significant effect on affinity vs wt; EMSA: 10 mM Tris pH 7.0, 10 mM NaCl (high salt: 50 mM NaHPO4, 400 mM NaCl), 5% glycerol, 1 mM DTT, 20 ug/ml BSA, on ice, gel at 4 C; NMR: 50 mM NaHPO4 pH 6.5, 100 mM NaCl, 8% D2O, 298 K. Conditions: protein: recombinant, tags: N-terminal His, (radiolabeled) in EMSA, bubble: 10 bp stem, 10 unpaired nt.

The target in data set [4] is T1, FAAP24 HhH domain. Briefly: EMSA; 10 mM NaCl; apparent Kd, multiple complexes; EMSA: 10 mM Tris pH 7.0, 10 mM NaCl (high salt: 50 mM NaHPO4, 400 mM NaCl), 5% glycerol, 1 mM DTT, 20 ug/ml BSA, on ice, gel at 4 C; NMR: 50 mM NaHPO4 pH 6.5, 100 mM NaCl, 8% D2O, 298 K. Conditions: protein: recombinant, tags: N-terminal His, (radiolabeled) in EMSA, bubble: 10 bp stem, 10 unpaired nt.

For the next data set, the target named is T6, FAAP24 full length (UniProt Q9BTP7 1-215).
T6 sequence: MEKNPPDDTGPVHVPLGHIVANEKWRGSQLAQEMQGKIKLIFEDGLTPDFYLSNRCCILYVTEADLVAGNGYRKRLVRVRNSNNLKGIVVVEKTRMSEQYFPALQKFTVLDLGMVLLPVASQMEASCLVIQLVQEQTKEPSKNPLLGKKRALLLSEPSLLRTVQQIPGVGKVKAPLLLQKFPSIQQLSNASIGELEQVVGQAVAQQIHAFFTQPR
In words: NMR; CSPs in hairpin 1, C-terminus and ERCC4-like domain; EMSA: 10 mM Tris pH 7.0, 10 mM NaCl (high salt: 50 mM NaHPO4, 400 mM NaCl), 5% glycerol, 1 mM DTT, 20 ug/ml BSA, on ice, gel at 4 C; NMR: 50 mM NaHPO4 pH 6.5, 100 mM NaCl, 8% D2O, 298 K. Conditions: protein: recombinant; tags: N-terminal His; blunt.

The target in data set [5] is T1, FAAP24 HhH domain. Briefly: NMR; 100 mM NaCl; CSPs in hairpin 1; EMSA: 10 mM Tris pH 7.0, 10 mM NaCl (high salt: 50 mM NaHPO4, 400 mM NaCl), 5% glycerol, 1 mM DTT, 20 ug/ml BSA, on ice, gel at 4 C; NMR: 50 mM NaHPO4 pH 6.5, 100 mM NaCl, 8% D2O, 298 K. Conditions: protein: recombinant; tags: N-terminal His; blunt.
For data set [6], the target named is T1, FAAP24 HhH domain. Briefly: NMR; 100 mM NaCl; CSPs in N-terminal linker; EMSA: 10 mM Tris pH 7.0, 10 mM NaCl (high salt: 50 mM NaHPO4, 400 mM NaCl), 5% glycerol, 1 mM DTT, 20 ug/ml BSA, on ice, gel at 4 C; NMR: 50 mM NaHPO4 pH 6.5, 100 mM NaCl, 8% D2O, 298 K. The following applies: protein: recombinant; tags: N-terminal His; single strand.

For the molecule “GGGCGGCGGGTTTTTTTTTTGGCGGGGCGG / CCGCCCCGCCTTTTTTTTTTCCCGCCGCCC [B10 bubble]”, in the data set with FAAP24 HhH V162A V162A, the binding signal (fold decrease in affinity vs wt) is 2.

B1: splayed arm with 20 nt arms (mixed)
DNA 1: GGGCGGCGGGCGGATAGATTGAAATCTTAG
DNA 2: GATTCTAAAGTTAGATAGGCCCCGCCGCCC
Turning to B1, in the data set with FAAP24 HhH domain [1], the binding result is listed as “binds”.

B2: 5' extension (mixed)
DNA: GATTCTAAAGTTAGATAGGCCCCGCCGCCC
?: GGGCGGCGGG
For the molecule B2, in the data set with FAAP24 HhH domain [2], the binding result is reported as “binds”.

As for TGCGAATTCATATGCAATATTCAGTGGCTGAGCTACTGG (ssDNA) [ss39], the Kd with FAAP24 HhH domain [3] (single strand) turned out to be 7.8 ± 0.4 µM.

B3: B10 bubble (mixed)
DNA 1: GGGCGGCGGGTTTTTTTTTTGGCGGGGCGG
DNA 2: CCGCCCCGCCTTTTTTTTTTCCCGCCGCCC
In the case of B3, the figures for the binding signal in the data set with FAAP24 HhH R161A, with FAAP24 HhH K171A/K173A and in the data set with FAAP24 HhH K173A were 2 fold decrease in affinity vs wt, 4 fold decrease in affinity vs wt and 3 fold decrease in affinity vs wt, respectively. Also, the binding result with FAAP24 HhH Q205A/Q206A was “binds”. In the data set with FAAP24 HhH domain [4], the Kd amounted to 1.2 ± 0.2 µM.

B4: ds10 (dsDNA)
DNA 1: GGGCGGCGGG
DNA 2: CCCGCCGCCC
Turning to B4, the binding result with FAAP24 full length and with FAAP24 HhH domain [5] was “binds” in each case.

B5: ds30 (dsDNA)
DNA 1: GGGCGGCGGGTTTTTTTTTTGGCGGGGCGG
DNA 2: CCGCCCCGCCAAAAAAAAAACCCGCCGCCC
As to B5, the Kd in the data set with FAAP24 HhH domain [3] (blunt) worked out at 9.1 ± 0.9 µM.

In the case of TTTTTTTTTTTTTTTTTTTT (ssDNA) [ss20 (dT20)], the binding result with FAAP24 HhH domain [6] is listed as “binds”.
